Measured values as given in patent US20040235764A1.

Molecular target: fibronectin
Assay: cell-based or functional assay

cell adhesion assay: attached F9 cells counted on fibronectin-coated wells after co-transfection with dsRNA integrin α3; reduction against F9 wild-type and co-transfection controls: 40%
Substance: integrin α3β1 (from UniProt Q62470 33-1053; P09055 21-798) (receptor)
